The target of assay [1] is T1, human PD-L1 on cells (human, UniProt Q9NZQ7 19-290).
T1 construct: whole, on cells; the cell line stands under assay; also called hPD-L1; OVCAR3/hPD-L1
The assay can be described thus: flow cytometry, OVCAR3 cells (low endogenous PD-L1). Here is the method: (§1) Binding was detected by using a labeled secondary antibody and measuring fluorescence on a flow cytometer.
(§2) Assay set up: OVCAR-3+/−PD-L1 cells were lifted with trypsin, washed and resuspended in stain buffer (2% FBS in PBS). OVCAR-3 and Jurkat/NFkB-Luc/h41BB cells were counted and added to wells at 200,000 cells/well. Cells, in wells of 96-well round bottom plates, were pelleted by centrifugation and resuspended in 150 ul stain buffer (PBS containing 2% FBS). Plates were once again centrifuged and subsequently 100 ul of stain buffer alone or stain buffer containing antibody, titrated from 200 nM to 12 pM in a 9-point 1:4 dose titration were added to cells. Cells and antibodies were incubated for 30 min on ice and then washed in stain buffer. Cells were resuspended in 2 μg/ml allophycocyanin (APC) conjugated goat-anti human secondary antibody. A secondary antibody alone control was included. Cells and secondary were incubated for 30 min on ice and then washed in stain buffer. […] After washing they were filtered and analyzed by flow cytometry. EC₅₀ values of the antibodies were determined from a 4 parameter logistic equation over a 9-point dose response curve (including secondary only control) using GraphPad Prism software.
In general terms: A flow cytometer gives signals particle by particle.

The target of assay [2] is T1, human PD-L1 on cells. The assay is described as follows: cell-based or functional assay.
In assay [3] the target is T1, human PD-L1 on cells. The assay is described as follows: flow cytometry, OVCAR3/hPD-L1 cells. Here is the method:
as §1, §2

Assay [4] concerns the target T2, human 4-1BB on cells (human, UniProt Q07011 24-255). The assay is described as follows: cell-based or functional assay.
Assay [5] deals with T3, human 4-1BB expressed with a C-terminal myc-myc-hexahistidine tag (h4-1BB.mmH) (human).
T3 construct: also called hCD137 (4-1BB) mmH
The assay is described as follows: blocking ELISA, 0.25 nM h4-1BB-mmh binding to coated 6His-Flag-h4-1BBL. Here is the method: The 4-1BB blocking assay was performed similarly to the PD-L1 blocking assay. 6His-Flag-h4-1BBL protein ([…] in PBS) was coated onto a 96-well microtiter plate overnight at 4 °C. […] The plates were developed using TMB substrate solution (BD Biosciences) and the absorbance at 450 nm was measured on a SpectraMax I3x plate reader.
(§3) Binding data were analyzed using a sigmoidal (four-parameter logistic) dose-response model with GraphPad Prism™ software. […] The percent blocking of tested antibodies at the highest tested concentration of 100 nM was calculated based on the formula shown below: […]

The target in the next assay is T4, hPD-L1-mFc (human; mouse, UniProt Q9NZQ7 19-239).
T4 construct: range 19-239; also called human PD-L1 extracellular domain with mouse IgG2a Fc; not shown: Fc portion of mouse IgG2a at the C-terminus, amino acids E98-K330
The assay is described as follows: blocking ELISA, 0.7 nM hPD-L1-mFc binding to coated hPD1-hFc. Here is the method: In the PD-L1 blocking assay, hPD1-hFc protein ([…] in PBS) was coated onto a 96-well microtiter plate overnight at 4° C. […] The plates were then developed using TMB substrate solution (BD Biosciences) according to the manufacturer's recommended procedure and the absorbance at 450 nm was measured on a SpectraMax I3x plate reader.
as §3

The target in assay [6] is T3, human 4-1BB expressed with a C-terminal …. The assay can be described thus: SPR Biacore, 25 C, antibody captured via anti-hFc, h4-1BB.mmH as analyte. The protocol: The CM5 Biacore sensor surface was derivatized by amine coupling with a monoclonal mouse anti-human Fc antibody. All Biacore binding studies were performed in a buffer composed of 0.01M HEPES pH 7.4, 0.15M NaCl, 3 mM EDTA, 0.05% v/v Surfactant P20 (HBS-EP running buffer). […] Antibody-reagent association was monitored for 5 minutes while dissociation in HBS-EP running buffer was monitored for 10 minutes. At the end of each cycle, the antibody capture surface was regenerated using a 10 sec injection of 20 mM phosphoric acid. All binding kinetics experiments were performed at 25° C.
(§4) Data analysis: The specific SPR-Biacore sensorgrams were obtained by a double referencing procedure. The double referencing was performed by first subtracting the signal of each injection over a reference surface (anti-hFc or anti-mFc) from the signal over the experimental surface (anti-hFc-captured anti-PD-L1×4-1BB antibodies) thereby removing contributions from refractive index changes. In addition, running buffer injections were performed to allow subtraction of the signal changes resulting from the dissociation of captured antibodies or antigens from the coupled anti-hFc or anti-mFc surface. Kinetic association (kₐ) and dissociation (kd) rate constants were determined by fitting the real-time sensorgrams to a 1:1 binding model using Scrubber v2.0c curve fitting software. Binding dissociation equilibrium constants (KD) and dissociative half-lives (t½) were calculated from the kinetic rate constants as: […]
In general terms: Surface plasmon resonance follows binding to a sensor surface in real time, without labels.

Assay [7] has as its target human PD-L1 expressed with a C-terminal myc-myc-hexahistidine tag (hPD-L1.mmH) (human). The assay is described as follows: SPR Biacore, 25 C, antibody captured via anti-hFc, hPD-L1.mmH as analyte. Here is the method: The CM5 Biacore sensor surface was derivatized by amine coupling with a monoclonal mouse anti-human Fc antibody. All Biacore binding studies were performed in a buffer composed of 0.01M HEPES pH 7.4, 0.15M NaCl, 3 mM EDTA, 0.05% v/v Surfactant P20 (HBS-EP running buffer). […] Antibody-reagent association was monitored for 5 minutes while dissociation in HBS-EP running buffer was monitored for 10 minutes. At the end of each cycle, the antibody capture surface was regenerated using a 12 sec injection of 20 mM phosphoric acid. All binding kinetics experiments were performed at 25° C.
as §4

The target of assay [8] is T1, human PD-L1 on cells. The assay can be described thus: flow cytometry, Jurkat/NFkB-Luc/h41BB cells (potential low endogenous PD-L1). Here is the method:
as §1, §2

Assay [9] concerns the target T2, human 4-1BB on cells. The assay can be described thus: cell-based or functional assay. The source holds these as a separate data set.

T1 sequence (Q9NZQ7 19-290): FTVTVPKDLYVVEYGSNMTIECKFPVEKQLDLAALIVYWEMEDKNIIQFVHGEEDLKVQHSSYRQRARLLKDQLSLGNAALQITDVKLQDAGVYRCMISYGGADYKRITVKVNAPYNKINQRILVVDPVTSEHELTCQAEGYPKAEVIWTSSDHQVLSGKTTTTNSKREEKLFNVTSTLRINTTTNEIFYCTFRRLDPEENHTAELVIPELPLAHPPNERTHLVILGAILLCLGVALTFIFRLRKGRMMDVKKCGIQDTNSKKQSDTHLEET
T2 sequence (Q07011 24-255): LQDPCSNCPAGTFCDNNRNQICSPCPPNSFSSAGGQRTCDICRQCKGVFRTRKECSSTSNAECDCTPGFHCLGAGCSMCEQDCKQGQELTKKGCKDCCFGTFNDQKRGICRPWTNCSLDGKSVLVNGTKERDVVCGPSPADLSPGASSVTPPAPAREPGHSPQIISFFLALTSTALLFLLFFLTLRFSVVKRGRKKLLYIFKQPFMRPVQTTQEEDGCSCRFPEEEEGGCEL
T3 sequence (chain, as listed by the source limits assumed): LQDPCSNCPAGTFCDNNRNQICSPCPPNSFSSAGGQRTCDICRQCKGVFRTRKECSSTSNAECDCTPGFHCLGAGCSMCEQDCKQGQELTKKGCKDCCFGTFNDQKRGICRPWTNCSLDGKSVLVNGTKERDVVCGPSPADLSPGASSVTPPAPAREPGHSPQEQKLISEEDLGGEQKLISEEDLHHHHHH
human PD-L1 expressed with a C-terminal myc-myc-hexahistidine tag (hPD-L1.mmH) (human), sequence (chain, as listed by the source limits assumed): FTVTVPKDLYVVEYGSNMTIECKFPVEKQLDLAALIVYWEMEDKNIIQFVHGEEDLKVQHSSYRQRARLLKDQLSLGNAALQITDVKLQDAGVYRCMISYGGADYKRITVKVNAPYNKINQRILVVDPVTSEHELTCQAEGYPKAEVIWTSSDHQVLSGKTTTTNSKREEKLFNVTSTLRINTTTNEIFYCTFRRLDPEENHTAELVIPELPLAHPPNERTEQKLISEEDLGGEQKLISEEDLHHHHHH
T4 sequence (Q9NZQ7 19-239 limits assumed): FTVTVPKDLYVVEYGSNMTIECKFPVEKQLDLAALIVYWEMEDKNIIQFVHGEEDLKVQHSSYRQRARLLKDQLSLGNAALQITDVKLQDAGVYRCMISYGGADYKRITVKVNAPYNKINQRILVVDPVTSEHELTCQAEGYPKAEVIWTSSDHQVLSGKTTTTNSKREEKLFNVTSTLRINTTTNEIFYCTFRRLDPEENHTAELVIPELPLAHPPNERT

B1: mAb9364 (antibody, V domains shown)
VH: EVQLVESGGGLVQPGRSLRLSCAASGFTFDDYALHWVRQAPGKGLEWVSGISWTGGTIDYADSVKGRFTISRDNAKNSLYLQMSSLRTEDTAIYYCTRDIRGNWKYGGWFDPWGQGTLVTVSS
VL: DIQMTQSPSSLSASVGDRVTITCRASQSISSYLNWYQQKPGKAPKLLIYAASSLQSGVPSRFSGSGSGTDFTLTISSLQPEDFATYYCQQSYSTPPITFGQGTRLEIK
notes: bivalent parental anti-PD-L1 antibody; captured by anti-human Fc); also called 9364P3; parental bivalent PD-L1 antibody
For the molecule B1, in the assay with human PD-L1 on cells [1], the EC50 (as a rule, the midpoint of the concentration-response curve) is 0.0084 nM and the “Fold change (max MFI over secondary antibody alone)” value (“Fold change” for short) came out at 4.4 fold. Besides, the “AP-1 luciferase EC50, Jurkat/AP1-luc/hPD1 + WSU-DLCL2/hPD-L1 + CD20xCD3” value in the assay with human PD-L1 on cells [2] was 0.00651 nM. In addition, in the assay with human PD-L1 on cells [3], the EC50 was 0.86 nM and the “Fold change” value worked out at 2200 fold. Moreover, in the assay with human 4-1BB on cells [4], the “IL2 release MAX, human CD3+ T cells + HEK293/hCD20/hPSMA + CD20xCD3” value turned out to be 13.4 pg/mL; the “IL2 release MAX, human CD3+ T cells + HEK293/hCD20/hPSMA, no CD20xCD3” value was 3.5 pg/mL; the “IL2 release MAX, human CD3+ T cells + HEK293/hCD20/hPSMA/hPD-L1 + CD20xCD3” value amounted to 9.3 pg/mL; the “IL2 release MAX, human CD3+ T cells + HEK293/hCD20/hPSMA/hPD-L1, no CD20xCD3” value turned out to be 3.5 pg/mL. Moreover, the “% Blocking at 100 nM mAb” value in [5] is 0%. Further, in the assay with hPD-L1-mFc, the IC50 – broadly, the concentration at which inhibition is half-maximal – came out at 0.52 nM. In [6], the “270 nM h4-1BB-mmH Bind (RU)” value amounted to 2 RU and the binding result is “no binding (tested: 270 nM)”. Further, in assay [7], the affinity, expressed as Kd, was 0.13 nM; the koff (in general, the first-order rate constant of dissociation) is 7.42e-05 s⁻¹; the kon – broadly, the second-order rate constant of association – turned out to be 571000 M⁻¹ s⁻¹; the t½ (in general, the time in which the quantity being followed falls by half) was found to be 2.59 h. In addition, the “Fold change” value with human PD-L1 on cells [8] was 9.5 fold. Also, in the assay with human 4-1BB on cells [9], the “NFkB-luciferase MAX (RLU), Jurkat/NFkB-Luc/h41BB + HEK293/hCD20/hPSMA” value came to 60900 RLU and the “NFkB-luciferase MAX (RLU), Jurkat/NFkB-Luc/h41BB + HEK293/hCD20/hPSMA/hPD-L1” value was determined as 70900 RLU.

Values taken from patent US20250043017A1 (Regeneron, published 2025).
